Results as given in patent publication US20240425587A1 (Alector, published 2024).

Columns and labels:
[1] = biological target: human PILRA on the surface of primary human macrophages or monocytes (human, UniProt Q9UKJ1 20-303); test: cell-based or functional assay
[2] = biological target: cynomolgus PILRA, ectopically expressed on 293 cells (cynomolgus monkey); test: screening summary, TCP groups
[3] = biological target: T1, human PILRA, c-term His-Avi tag (human, UniProt Q9UKJ1 20-197, limits assumed); test: SPR (Biacore), antibody captured, PILRA as analyte
T1 construct: not shown: C-terminal His-Avi tag
T1 sequence (Q9UKJ1 20-197 limits assumed): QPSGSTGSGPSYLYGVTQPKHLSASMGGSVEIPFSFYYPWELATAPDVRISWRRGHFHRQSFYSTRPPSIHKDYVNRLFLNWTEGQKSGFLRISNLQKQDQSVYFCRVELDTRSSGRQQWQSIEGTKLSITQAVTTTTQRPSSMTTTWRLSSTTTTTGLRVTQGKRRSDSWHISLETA
In short: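 Antibodies were captured at 10 μg/ml on an anti-huFc or anti-msFc CM5 surface, and human PILRA was flowed at 33, 100 and 300 nM in HBSTE/0.5% BSA, pH 7.4. The surface was regenerated with 10 mM glycine-HCl, pH 2.1, after each analyte. Curves were double-referenced with buffer injections.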

[4] = biological target: T2, human PILRA, G78 variant, ectopically expressed on 293 cells (human, UniProt Q9UKJ1 20-303); test: screening summary, TCP groups
T2 construct: the cells are labelled G78; also called hA G78 OE; hA
T2 sequence (Q9UKJ1 other isoform, or with tags, fused parts or gaps mutant): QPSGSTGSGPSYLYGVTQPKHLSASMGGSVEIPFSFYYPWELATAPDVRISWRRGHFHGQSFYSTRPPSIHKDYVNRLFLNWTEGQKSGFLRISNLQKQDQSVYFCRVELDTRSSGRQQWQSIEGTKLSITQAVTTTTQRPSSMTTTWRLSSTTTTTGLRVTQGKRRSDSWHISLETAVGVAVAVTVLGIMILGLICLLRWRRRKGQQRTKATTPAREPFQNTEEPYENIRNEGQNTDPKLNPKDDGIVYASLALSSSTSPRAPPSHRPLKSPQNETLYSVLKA

[5] = biological target: T3, PILRA Fc (soluble human PILRA) (human, UniProt Q9UKJ1 20-197, limits assumed); test: flow cytometry blocking assay, graph 'V1 Blocking_CD3+T Donor 906': antibody mixed with PILRA-Fc, then human CD3+ T cells; bound PILRA-Fc detected with AF647 2nd Ab; blocked partner: PILRA ligand on the T cells
T3 construct: also called soluble PILRA; not shown: Fc part, detected with anti-human IgG
T3 sequence (Q9UKJ1 20-197 limits assumed): as the sequence (Q9UKJ1 20-197 limits assumed) above
Experimental: The ability of conditioned media samples containing antibodies to inhibit the binding of PILRA Fc to human CD3+ T cells was assessed. Briefly, conditioned media samples containing antibodies were incubated with 1.25 ug/ml PILRA Fc for 30 min at 4° C. and then added to human T cells. After 30 minutes incubation at 4° C., cells were washed, and bound PILRA Fc was detected with anti-human IgG Alexa 647. Cells were analyzed by flow cytometry on FACS Canto II, and for all cell lines, the amount of PILRA Fc binding (MIFI) and the percentage of PILRA Fc binding in the presence of conditioned media relative to PILRA Fc binding alone was calculated. Several antibodies inhibited binding of PILRA Fc to human T cells, and a few antibodies enhanced PILRA-Fc binding to T cells. Antibodies that show enhancement in this assay may block cis inhibition to promote trans interactions or may allosterically activate to enhance trans interactions without blocking cis.

cynomolgus PILRA, ectopically expressed on 293 cells (cynomolgus monkey), sequence (chain, as listed by the source): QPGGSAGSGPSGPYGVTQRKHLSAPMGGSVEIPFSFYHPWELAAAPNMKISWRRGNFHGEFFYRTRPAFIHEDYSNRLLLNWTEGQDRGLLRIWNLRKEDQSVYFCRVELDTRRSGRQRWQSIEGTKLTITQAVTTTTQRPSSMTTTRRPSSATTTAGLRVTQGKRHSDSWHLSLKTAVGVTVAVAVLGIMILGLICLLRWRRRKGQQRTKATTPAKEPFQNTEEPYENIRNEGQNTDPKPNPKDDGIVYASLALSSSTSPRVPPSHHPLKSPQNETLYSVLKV
human PILRA on the surface of primary human macrophages or monocytes, sequence (Q9UKJ1 20-303): as the sequence (Q9UKJ1 other isoform, or with tags, fused parts or gaps mutant) above, with G59R counted along it

| Binder | hPILRA downregulation EC50 [1] [µg/mL] | binding result [2] | binding result [3] | Kd [3] [nM] | koff [3] [s⁻¹] | kon [3] [M⁻¹ s⁻¹] | t½ [3] [min] | binding result [4] | IC50 (read off the curve) [5] [µg/mL] |
| --- | --- | --- | --- | --- | --- | --- | --- | --- | --- |
| B3 (hIgG4 isotype) (antibody, V domains shown) VH: EVKLVESGGGLVKPGGSLKLSCTASGFTFSNYAMSWVRQTPEKRLEWVASISGGGSTYYPDSVKGRFTIAIDYARNILYLQMSSLRSEDTAIYFCTRGVSYGDYAMDYWGQGTSVTVSS VL: ETTVTQSPASLSMAIGEKVTIRCVTSTDIDDDMNWYQQKPGGPPKLLISEGNTLRPGVPSRFSSSGYGSDFVFTIEDMLSEDVADYYCLQSDNLPLTFGAGTKVELK | 0.006 | – | – | – | – | – | – | – | – |
| B3 (antibody, V domains shown, B-cell cloning campaign (mice)) VH: EVKLVESGGGLVKPGGSLKLSCTASGFTFSNYAMSWVRQTPEKRLEWVASISGGGSTYYPDSVKGRFTIAIDYARNILYLQMSSLRSEDTAIYFCTRGVSYGDYAMDYWGQGTSVTVSS VL: ETTVTQSPASLSMAIGEKVTIRCVTSTDIDDDMNWYQQKPGGPPKLLISEGNTLRPGVPSRFSSSGYGSDFVFTIEDMLSEDVADYYCLQSDNLPLTFGAGTKVELK | – | binds | no binding (tested: 33, 100, and 300 nM) | – | – | – | – | – | – |
| B4 (antibody, V domains shown, B-cell cloning campaign (mice)) VH: EVKLVESGGGLVKPGGSLKLSCTASGFTFSNYAMSWVRQTPEKRLEWVASISGGGSTYYPDSVKGRFTIAIDYARNILYLQMSSLRSEDTAIYYCTRGVSYGDYAMDYWGQGTSVTVSS VL: ETTVTQSPASLSMAIGEKVTIRCVTSTDIDDDMNWYQQKPGGPPKLLISEGNTLRPGVPSRFSSSGYGSDFVFTIEDMLSEDVADYYCLQSDNLPLTFGAGTKVELK | – | binds | – | 88.3 | 0.00054 | 6100 | 21.4 | – | – |
| D9 (antibody, V domains shown, second hybridoma campaign) VH: QVQLKESGPGLVAPSQSLSITCSVSGFSLSSYAINWVREPPGKGLEWLGVIWTGGGTNYNSALKSRLSISKDNSKSQVFLKMNSLQTDDTARYYCARNSIYYDYDGFAYWGQGTLVTVSA VL: DIQMTQSSSYLSVSLGGRVTITCKASDHINNWLAWYQQKPGNAPRLLISGATSLETGVPSRFSGSGSGKDYTLSITSLQTEDFTTYYCQQYWSTPYTFGGGTKLEIK | – | – | – | – | – | – | – | binds | – |
| C3 (antibody, V domains shown, first hybridoma campaign) VH: EVHLQQSGPELVKPGASVKISCKASGYTFTDYYLNWVKLSLGKSLEWIGDINPNDGDTSYNQTFKGKATLTVDKSSSTAYMELRSLTSEDSAVYYCARRASSYYSNYGWYFDVWGTGTTVTVSS VL: DILLTQSPAILSVSPGERVSFSCRASQSIGTSIHWYQQRTNGSPRLLIKFASESISGIPSRFSGSGSGTDFTLSINTVESEDIGDYYCQESNSWPTTFGAGTKLELK | – | binds | – | 8.3 | 0.0042 | 510000 | 2.7 | – | – |
| hPA-002 (antibody, V domains shown) VH: QVTLQESGPGILQPSQTLSLTCSFSGFSLSTFGMGVGWIRQPSGKGLEWLAHIWWDDDKYYNPALKSRLTISKDTSKNQVFLKIASVDTADIATYYCARVEDYGNPFDYWGQGTTL VL: DIQMNQSPSSLSASLGDTITITCHASQNIHVWLNWYQQKPGNIPKLLIYKASNLHTGVPSRFSGSGSGTGFTVTISSLQPEDIATYYCQQGQSYPLTFGAGTKLELK | – | – | – | 23.4 | 0.0052 | 220000 | 2.2 | – | ~1 |
| hPA-005 (antibody, V domains shown) VH: QVILKESGPGILQSSQTLSLTCSFSGFSLSTFGMGVGWIRQPSGKGLESLAHIWWDDDKFYNPALKSRLTISKDTSKSQVFLKIANVDTADIATYYCTRIEDYGSYFAYWGQGTTLTVSS VL: DVQMNQSPSSLSASLGDPITITCHASQNIHVWLNWYQQRPGNIPRLLIYKASNLHTGVPSRFSGSGSGTGFTLTISSLQPEDIATYYCQQGQSYPYTFGGGTKLEIK | – | – | – | 7 | 0.0015 | 210000 | 7.9 | – | ~3 |
| hPA-004 (antibody, V domains shown) VH: QVTLKESGPGMLQPSQTLSLACSFSGFSLNSFGVAVGWIRQPSGKGLEWLAHIWWDDDKSYNPALKSRLTISKDTSKNQVFLKLANVDTADTATYYCTRIADYGNHFDYWGQGTALTVSS VL: DIQMNQSPSSLSASLGDTITITCHASQNSHVWLSWYQQKPGNIPKLLIYKASNLHTGVPSRFSGSGSGTGFTLTISGLQPEDIATYYCQQGQTYPFTFGSGTKLEIK | – | – | – | 9 | 0.0011 | 130000 | 10.1 | – | ~3 |
| B1 (hIgG4 isotype) (antibody, V domains shown) VH: DVKLVESGGGLVKLGGSLKLSCAASGFTFSSYYMSWVRQTPEKRLEWVAAINSNGDRSYYPDTVKGRFTISRDNAKNTLYLQMSSLKSEDTAFYYCASHGNYYGSPWFAYWGQGTLVTVSA VL: ETTVTQSPASLSVATGEKVTIRCKTSTDIDDDMNWYQQKPGEPPKLLISEGNTLRPGVPSRFSSSGYGTDFVFTIENTLSEDVADYYCLQNDHMPLTFGGGTKLEIK | 0.009 | – | – | – | – | – | – | – | – |
